From US20210147847, “APTAMERS FOR TARGETED ACTIVATON OF T CELL-MEDIATED IMMUNITY” (Rheinische Friedrich-Wilhelms-Universitat Bonn, published 2021)

Target: T1, Fc-CTL (mannose receptor CTLD4-7 fused to human IgG1 Fc) (Mus musculus, UniProt Q61830 Q61830:655-1212)
T1 chain: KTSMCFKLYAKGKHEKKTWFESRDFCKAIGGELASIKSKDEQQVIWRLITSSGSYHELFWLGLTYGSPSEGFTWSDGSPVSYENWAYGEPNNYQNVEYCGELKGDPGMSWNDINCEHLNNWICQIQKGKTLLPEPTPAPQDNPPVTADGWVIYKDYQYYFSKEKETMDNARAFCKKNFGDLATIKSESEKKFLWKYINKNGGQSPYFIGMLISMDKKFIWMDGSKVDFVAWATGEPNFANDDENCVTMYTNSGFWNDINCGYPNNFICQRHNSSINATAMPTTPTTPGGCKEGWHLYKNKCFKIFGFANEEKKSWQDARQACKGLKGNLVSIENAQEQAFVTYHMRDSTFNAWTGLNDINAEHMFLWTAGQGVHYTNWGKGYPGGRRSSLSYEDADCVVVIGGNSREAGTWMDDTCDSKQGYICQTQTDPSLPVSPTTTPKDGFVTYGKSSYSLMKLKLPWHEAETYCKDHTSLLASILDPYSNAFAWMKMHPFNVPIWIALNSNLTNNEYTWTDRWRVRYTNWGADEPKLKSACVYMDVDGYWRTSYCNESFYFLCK
Test: filter; 500 nM protein, PBS, 1 mM MgCl2, 1 mM CaCl2, BSA, 37 C; more than 2-fold higher than Fc-FN
Conditions: tags: human IgG1 Fc fusion; expressed in HEK293T from pIgplus-CTLD4-7; protein G purified; chain copies: 2; label: 5'-32P or 5'-ATTO 647N
Description: Representative DNA sequences of each motif family (FIG. 14A-B), namely CTL #5, CTL #9, CTL #6 and CTL #16, and unique sequences CTL #1, #2, #3, #14 and #18 (FIG. 39) were chosen for further analysis. Therefore, their binding ability to Fc-CTL, Fc-FN and the IgG1 Fc protein tag was monitored by radioactive filter retention assay (FIG. 15). DNA was end labeled with ³²P and mixed with the corresponding proteins at a concentration of 500 nM. The mixtures were incubated in selection buffer for 30 minutes at 37° C. and applied on a nitrocellulose membrane. Finally, the amount of bound DNA was detected by autoradiography.

B1: CTL #5 (ssDNA)
DNA: GCTGTGTGACTCCTGCAATGCAATCTAGCTGACAATGGGGGGGAAGAATGTGGGTGGGTGGCAGCTGTATCTTGTCTCC
  binding result: binds
